Experimental findings from patent publication US11891427B2, “Amidated peptides and their deamidated counterparts displayed by non-HLA-a*02 for use in immunotherapy against different types of cancers” (Immatics Biotechnologies GmbH, priority 2020, dated 2024) are described below.

The target in one assay is HLA-A*24:02 (Homo sapiens, UniProt P04439, D101N/D140Y/D185E/E176V/E190D/F33S/G103R/G107R/I119L/I121M/I306V/K335N/L105A/L180Q/L300P/N151K/N90K/Q86E/Q94H/R106L/R138H/R89G/T104I/T345S/V100E/W191G/Y123F). As to the kind of experiment: MHC binding assay (UV-ligand exchange, beta2m ELISA). To be noted: binding to HLA-A*24:02, ranged by peptide exchange yield. From the text:
(§1) Candidate peptides for T cell based therapies according to the present invention were further tested for their MHC binding capacity (affinity). The individual peptide-MHC complexes were produced by UV-ligand exchange, where a UV-sensitive peptide is cleaved upon UV-irradiation and exchanged with the peptide of interest as analyzed. Only peptide candidates that can effectively bind and stabilize the peptide-receptive MHC molecules prevent dissociation of the MHC complexes. To determine the yield of the exchange reaction, an ELISA was performed based on the detection of the light chain (β2m) of stabilized MHC complexes. The assay was performed as generally described in Rodenko et al. (Rodenko et al., 2006).
(§2) 96 well MAXISorp plates (NUNC) were coated over night with 2 μg/ml streptavidin in PBS at room temperature, washed 4× and blocked for 1 h at 37° C. in 2% BSA containing blocking buffer. Refolded HLA-A*02:01/MLA-001 monomers served as standards, covering the range of 15-500 ng/ml. Peptide-MHC monomers of the UV-exchange reaction were diluted 100-fold in blocking buffer. Samples were incubated for 1 h at 37° C., washed four times, incubated with 2 μg/ml HRP conjugated anti-β2m for 1 h at 37° C., washed again and detected with TMB solution that is stopped with […]. Absorption was measured at 450 nm. Candidate peptides that show a high exchange yield (preferably higher than 50%, most preferred higher than 75%) are generally preferred for a generation and production of antibodies or fragments thereof, and/or T cell receptors or fragments thereof, as they show sufficient avidity to the MHC molecules and prevent dissociation of the MHC complexes.
Background: An ELISA detects its analyte on a solid surface through an enzyme-linked reagent.
For the substance 1 (VHDFTLPSW) [compound 1], the Peptide exchange entry is given as “++ (≥20% = ++)”.

In the case of 2 (FFQDSTFSF) [compound 2], the Peptide exchange result is reported as “++++ (≥75% = ++++)”.

Take 5 (GYIDDVTLI) [compound 5]: the Peptide exchange result is “+++ (≥50% = +++)”.

With 9 (IFDETGRF) [compound 9], the Peptide exchange entry is reported as “++ (≥20% = ++)”.

As for 23 (SYDETKIKF) [compound 23], the Peptide exchange entry is reported as “+ (≥10% = +)”.

Regarding 24 (FYDNSVIIF) [compound 24], the Peptide exchange entry is listed as “++ (≥20% = ++)”.

For 26 (IYPDASLLIQNI) [compound 26], the Peptide exchange entry is given as “++++ (≥75% = ++++)”.

For 36 (YWDETLKEF) [compound 36], the Peptide exchange entry is “+++ (≥50% = +++)”.

As for 38 (KLTDNSNQF) [compound 38], the Peptide exchange entry is “++ (≥20% = ++)”.

On to 43 (FFTDKTLSF) [compound 43], for which the Peptide exchange result is “++++ (≥75% = ++++)”.

As for 45 (YFVDVTTRI) [compound 45], the Peptide exchange entry is “+++ (≥50% = +++)”.

Take 54 (QYQDTTVSF) [compound 54]: the Peptide exchange result is listed as “+++ (≥50% = +++)”.

For the substance 55 (VYTDISHHF) [compound 55], the Peptide exchange result was “++++ (≥75% = ++++)”.

Consider 57 (FYDLSIQSF) [compound 57], for which the Peptide exchange result is reported as “++++ (≥75% = ++++)”.

With 64 (FHYDDTAGYF) [compound 64], the Peptide exchange entry was “+ (≥10% = +)”.

As for 65 (IYQFARLDY) [compound 65], the Peptide exchange result was “++ (≥20% = ++)”.

As to 66 (YHDQTISF) [compound 66], the Peptide exchange result was “+ (≥10% = +)”.

On to 67 (QAIDLSLNF) [compound 67], for which the Peptide exchange entry is given as “++ (≥20% = ++)”.

In the case of 68 (VFDETKNLL) [compound 68], the Peptide exchange entry was “++ (≥20% = ++)”.

69 (KSYHDQTISF) [compound 69]: the Peptide exchange entry was “++++ (≥75% = ++++)”.

In the case of 76 (TYLPTDASLSF) [compound 76], the Peptide exchange result is recorded as “++++ (≥75% = ++++)”.

On to 95 (VYIDDSVEL) [compound 95], for which the Peptide exchange result was “++++ (≥75% = ++++)”.

For 96 (IFVPTDRSL) [compound 96], the Peptide exchange result is listed as “++ (≥20% = ++)”.

For the substance 97 (RYVNDYTNSF) [compound 97], the Peptide exchange result is given as “++++ (≥75% = ++++)”.

On to 98 (AFDKTIVKL) [compound 98], for which the Peptide exchange result is on record as “++ (≥20% = ++)”.

Turning to 99 (VYVDTTELAL) [compound 99], the Peptide exchange result is “++++ (≥75% = ++++)”.

Consider 100 (EYQDFSTLF) [compound 100], for which the Peptide exchange entry is “++++ (≥75% = ++++)”.

For 101 (VYLDASKVPGF) [compound 101], the Peptide exchange entry is reported as “++++ (≥75% = ++++)”.

Take 102 (IYPDGTLLI) [compound 102]: the Peptide exchange result was “++++ (≥75% = ++++)”.

Take 103 (RQDESYLNF) [compound 103]: the Peptide exchange result was “++ (≥20% = ++)”.

Regarding 104 (HLFYDVTVF) [compound 104], the Peptide exchange result is “++ (≥20% = ++)”.

Another assay has as its target HLA-B*44:05 (Homo sapiens, UniProt P01889, A223V/A65T/A93T/A95T/D201E/D98Y/E176V/E187L/E204Q/E69K/G107R/H137Y/K202T/L105A/L119I/N104T/N87E/Q56L/Q94N/R106L/R155S/R180D/S101N/S121R/S35A/S48T/T118I/V36M/W191S/Y91S). The assay is described as above. The following applies: binding to HLA-B*44:05, ranged by peptide exchange yield.
Source text: as §1, §2
On to 15 (TEGDFTKEASTY) [compound 15], for which the Peptide exchange result was “+++ (≥50% = +++)”.

Consider 44 (KENQDHSYSL) [compound 44], for which the Peptide exchange entry is listed as “++++ (≥75% = ++++)”.

As to 46 (KEVDDTLLVNEL) [compound 46], the Peptide exchange entry is listed as “++++ (≥75% = ++++)”.

In the case of 73 (DESKYTWSW) [compound 73], the Peptide exchange entry is reported as “++++ (≥75% = ++++)”.

Take 74 (LENMYDLTF) [compound 74]: the Peptide exchange result is listed as “++++ (≥75% = ++++)”.

As to 75 (QEVDISLHY) [compound 75], the Peptide exchange result is given as “++++ (≥75% = ++++)”.

With 77 (KPREEQYDSTY) [compound 77], the Peptide exchange entry is “++++ (≥75% = ++++)”.

For 78 (DETIWYVRF) [compound 78], the Peptide exchange result is listed as “++++ (≥75% = ++++)”.

108 (DETHTLQF) [compound 108]: the Peptide exchange result is reported as “++++ (≥75% = ++++)”.

With 109 (DETAAYKIM) [compound 109], the Peptide exchange entry is “+++ (≥50% = +++)”.

Take 110 (AESLAVHDI) [compound 110]: the Peptide exchange entry is listed as “+++ (≥50% = +++)”.

On to 111 (GEYRCQTDL) [compound 111], for which the Peptide exchange entry is reported as “++++ (≥75% = ++++)”.

For 112 (AEFFDYTVRTL) [compound 112], the Peptide exchange result is “++++ (≥75% = ++++)”.

Regarding 113 (TDFTKIASF) [compound 113], the Peptide exchange result is “++++ (≥75% = ++++)”.

For another assay, the target named is HLA-A*01:01 (Homo sapiens, UniProt P04439, A114D/A174V/A182V/D101N/D185E/E176A/E190D/L180R/Q94H/R68K/S129P/T187R/V100A/V91M/W191G). The assay is described as above. To be noted: binding to HLA-A*01:01, ranged by peptide exchange yield.
Source text: as §1, §2
For 4 (YIDDVTLI) [compound 4], the Peptide exchange result was “++ (≥20% = ++)”.

Turning to 6 (ISDITEKNSGLY) [compound 6], the Peptide exchange result is on record as “++++ (≥75% = ++++)”.

Regarding 7 (VTRDDTASY) [compound 7], the Peptide exchange result is given as “++ (≥20% = ++)”.

For the substance 10 (QVDGSLLVI) [compound 10], the Peptide exchange entry was “++ (≥20% = ++)”.

For 11 (NHITDTSLNLF) [compound 11], the Peptide exchange entry was “++ (≥20% = ++)”.

As for 12 (ITDTSLNLF) [compound 12], the Peptide exchange result was “++++ (≥75% = ++++)”.

For 13 (TANYDTSHY) [compound 13], the Peptide exchange entry is “++ (≥20% = ++)”.

On to 16 (VTQDDTGFY) [compound 16], for which the Peptide exchange result was “++++ (≥75% = ++++)”.

As to 18 (GTDKQDSTLRY) [compound 18], the Peptide exchange entry was “++++ (≥75% = ++++)”.

Consider 19 (MTDVDRDGTTAY) [compound 19], for which the Peptide exchange result is “++++ (≥75% = ++++)”.

Take 20 (TSDTSQYDTY) [compound 20]: the Peptide exchange result is listed as “+++ (≥50% = +++)”.

In the case of 25 (FTDLITDESINY) [compound 25], the Peptide exchange result is on record as “++++ (≥75% = ++++)”.

On to 33 (ISDGMDSSAHY) [compound 33], for which the Peptide exchange result is on record as “++++ (≥75% = ++++)”.

Take 34 (LSDLSLADI) [compound 34]: the Peptide exchange result is given as “++ (≥20% = ++)”.

For the substance 37 (RSLDCTVKTY) [compound 37], the Peptide exchange result is “+++ (≥50% = +++)”.

As for 49 (PSDGSMHNY) [compound 49], the Peptide exchange entry is “++++ (≥75% = ++++)”.

On to 50 (RSIDVTGQGF) [compound 50], for which the Peptide exchange result is reported as “++ (≥20% = ++)”.

For 51 (RVDDITDQF) [compound 51], the Peptide exchange result was “++ (≥20% = ++)”.

In the case of 52 (LTEVEKDATALY) [compound 52], the Peptide exchange result was “++++ (≥75% = ++++)”.

As for 58 (GTDQTGKGLEY) [compound 58], the Peptide exchange entry was “+++ (≥50% = +++)”.

For 59 (ILFSDSTRLSF) [compound 59], the Peptide exchange result is “+++ (≥50% = +++)”.

Turning to 60 (HVKDATMGY) [compound 60], the Peptide exchange result was “+++ (≥50% = +++)”.

In the case of 79 (FTDTSSYEY) [compound 79], the Peptide exchange entry is given as “++++ (≥75% = ++++)”.

As to 80 (LTNDQTLRL) [compound 80], the Peptide exchange entry is “+++ (≥50% = +++)”.

As for 81 (VTETMGIDGSAY) [compound 81], the Peptide exchange result is “++++ (≥75% = ++++)”.

Take 82 (VTDVTEEHY) [compound 82]: the Peptide exchange result is on record as “++++ (≥75% = ++++)”.

Take 83 (TFVDASRTLY) [compound 83]: the Peptide exchange entry is “++++ (≥75% = ++++)”.

In the case of 84 (EVEGVIDGTYDY) [compound 84], the Peptide exchange result is reported as “++++ (≥75% = ++++)”.

Regarding 85 (EVQDHSTSSY) [compound 85], the Peptide exchange result is on record as “++ (≥20% = ++)”.

With 86 (ILPDITTTY) [compound 86], the Peptide exchange result was “++ (≥20% = ++)”.

As for 87 (ITDDTVQTY) [compound 87], the Peptide exchange entry is on record as “++++ (≥75% = ++++)”.

In the case of 88 (WLDRSTILY) [compound 88], the Peptide exchange result is “++++ (≥75% = ++++)”.

For the substance 89 (HVSDVTVNY) [compound 89], the Peptide exchange result is “++ (≥20% = ++)”.

With 90 (HVDNSNLNY) [compound 90], the Peptide exchange result is listed as “++++ (≥75% = ++++)”.

Regarding 91 (GVDDTSLLY) [compound 91], the Peptide exchange result is listed as “++++ (≥75% = ++++)”.

As to 92 (GQYDDSLQAY) [compound 92], the Peptide exchange entry was “++ (≥20% = ++)”.

On to 93 (HADLTTLTF) [compound 93], for which the Peptide exchange result was “++ (≥20% = ++)”.

Take 94 (YSIDVTNVM) [compound 94]: the Peptide exchange entry is “+++ (≥50% = +++)”.
